The source of these data is the DeepSol protein solubility set.

The data set in a line: soluble on expression in E. coli; label from the status in PepcDB or PDB records.
As to “GPGSMLRRTLYALTRPRDSAAASRDKAHFDVCVIGGGPAGIAAALRAADYNKRVCVVEKARLGGNDLWDGALQSKTMWECSAIMAKMRGDAAMRLYGESLDRYLEIDEVKMRQSMEQVSRIREEQIQAALKASPNVELVLGRATFSSNHEIQCHSKRTKEFRSITADYFIVATGSKPRKHPYVAADGRLVMTSDHIMRAPLPKSLVIVGAGVIGCEFASIIGRLGKTKVSIIDKAPHILPREDPDIVRMIESGMDRAGIVVHHNSDLYDMQPWEETVEEAKARHPADPAPQSGVQYTVMDRTTRKLTTFQVERALISIGRVPDYSRLGIENTTLKTRGSQLHVNEFGQCVGTPHIFAVGDAATHMQLVSMGEAQAKLAVDYIYGTEPKVVPNLTETMSSVAFLTRAVASVGYNESQCREKGIAYIAARYSYEVVSRAVAAANTKGFVKIICADDPERRILGVRALGMNASTLVDIGALAIQNGQGVFDLAGRLTAYPAVSQAFQECLRSILDLSAQLHADPARGVKLTKWTPPDMSRGVAYKGKATAPGESSPRQSGWVIH”, the “soluble on expression in E. coli” value is recorded as “not soluble”. As for “GPGSMLVPGYGSHLLRFGSTWVYITRAEDPSKQKAAAANRVDRENDKLTLTFFTRRRAVVQQFMKHVQESWRANVRNTVHIYLSEGYGPRWHLLSERIRRPLSTLYLPADTKAVVEEARLFLRLKDTYAALGIPWRRGYLLEGPPGTGKTSFVMALAGELGLPVHILSLRSANMDDDALLSLTSSLPRRSILLIEDLENVLKTPPGAGRSALSSGASDTAAVAAAETSAASPASPYSTDIGGGPRSAMSLSALLNALDGVSSSEGRLLLITTNDTSRIPFAEVLLRPGRVDRRIRFQPLHVEQLREMEASFQQALQASPCSAVENPRLPSARPSAHEDDRSVACTPAQYQQRLLDAVYASLTSRPRAESK”, the “soluble on expression in E. coli” value is “not soluble”.

On to “GPGSMMRCGNGSGPAAPSAASPRSHEGCLPHWMECSSASSSFVEDRVRCLVHPVGVTSLLPAPLQRILANVLRILQQERAQLKGQRPCRRHSRSLGTGVDAEVTECIVDAAQAPSLAAAADIFSAFVAAHPMDGLALLSSPVALVGAALAEVVTLGQVESCVIPMPELLSFLDAAISVGHPGAMHSVAICLREGTAGLQRDVTSSETWLRCAASSGYLPAMHELGETYERGAPASSKLPAGAAEDAADWGEAMQWYRRAAEAGYPPSQLNLGKLLLAASEHAQSAGSAAAPQVAHLFTEAKRWLHACAATGVEEAVRLVKRIEEQGAR”, for which the “soluble on expression in E. coli” value is “soluble”. Regarding “GPGSMNERLEDIALTLVGAGKGILAADESTATIGKRFESIGVECTEDNRRAYREMLFTAKEAMESAISGVILFDETLRQKASTGQMLTDLIRDAGAVPGIKVDTGAKPLAAFPQETITEGLDGLRERLKDYYTLGARFAKWRAVIAIDAQTLPTRGAISQNAQALARYAALCQEAGLVPIVEPEVLMDGPSRQHSITRCFEVTKVVLHTVFKELFEARVLFEGMILKPNMVIDGKDARIASVEEVAEKTVHVLKQTVPAAVPGIAFLSGGQTDEEATAHLSAMNALGALPWKLTFSYGRALQAAALKAWAGKNENIVVAQKAFCHRARMNHLAALGQWTKDQEKSCA”, the “soluble on expression in E. coli” value is listed as “soluble”. The value for “GPGSMNPATKDVASAEEESPVVCTAKQYIFDLHSYAWKESDCLIRIPRPHKGMGHGGMRVCYAVEDVDEEGAGTPMVAKMFRRNISNVVEKDYFNEGAAQCMCEEFANNFNRIHLTNIRKPNISFLQCYVVRIPRDSIPAASQRKRTGFFSYKTQDTGEVMFVMEPMLSGKFTKYNSNYGETYREDKKAALTSSEARRRTEIFEAAETFSHFTLVESGGSMLVCDLQGVNDFFTDPQIHTEDGKGLGMGNMGQEGIDKWIEKHECNDICRALGLQPLLGAVPSSTACAREENMYLGLRAQLQSQNPVRLRDLVPLTKPLEEMTEAERIEYALKVSRLTD” was “soluble”. For “GPGSMNPSKVVQGTPNSVEWDPRNPPDTPFFTETTAVERSRIPTEYIRRMEEATRLYAMHREGRHALHTACQIASWTVATQCCWLCVGVWLTVRGYRHANPAHSFVSGMTSNKVFCRVFTPIPVLGLTMMGVTAAQLPRDVKVLITAREGRMEEENCMKSAFDQCMAALAEGRLAMGKEGILTA” the value was “not soluble”; for “GPGSMNRLFGRKKDTQKPTLEDASVKIGARCDAVDARVSKIDAELAKLKECIQRTTGATQQRHKQRAIQLLQQKRLYQNQQDVLMQQQFNIDQLQFTTESVKDAKLQVDAMKDATKTLKREFKKMSVADVEKLQDELLNLYEDAQYVQEAMGRSYDVPDSIDEDEMLGELEALAMQSGNEADSSYLSDALAMPSGRLPDLMSNTQQQQETETPDPYKLETQLGL”, “not soluble”. On to “GPGSMNYEGHLKGHRGWVTSLACPQQAGSYIKVVSTSRDGTAISWKANPDRHSVDSDYGLPNHRLEGHTGFVSCVSLAHATDYALTASWDRSIRMWDLRNGQCQRKFLKHTKDVLAVAFSPDDRLIVSAGRDNVIRVWNVAGECMHEFLRDGHEDWVSSICFSPSLEHPIVVSGSWDNTIKVWNVNGGKCERTLKGHSNYVSTVTVSPDGSLCASGGKDGAALLWDLSTGEQLFKINVESPINQIAFSPNRFWMCVATERSLSVYDLESKAVIAELTPDGAKPSECISIAWSADGNTLYSGHKDNLIRVWSISDAE”, for which the “soluble on expression in E. coli” value is “soluble”. Turning to “GPGSMPNPYTGNYEAARFVEYYASAQMLRDSVHRLHTVSIQRHMDALRRAESAHQKHTCPAAPIRSRQQIEEHANRMVYQEMLRRQKNMTKLAWDVYKPVPPKRLSSEELRSLVKRMYEQQMQNMTERKKEARQRQVVLSDEVLAETRRGRRMLRQRDIHRSLESGWRTPSSRAKYNDGKLLLVSGGNVKSTSKERPPDLGYLARLAKPLRPTERVNKC”, the “soluble on expression in E. coli” value was “not soluble”.

For “GPGSMPSLNFFLADESRLESSRDDSTAEVAHFTPSQHALRRILISTAMANKSLEYVQGMNEYVAHLLYAFAKGKASNLTASVEADTFFCFQTLLSYLGDDFCRSFDFDAACGLTSTMRLFDNVLRFFDPSLFQHLEYLGINAEHYALRWIMLLFTQEFNIADGLRVWDFLLSFGDEIRNAAFFVAAAMCHHLRSSILSGEAMSDVLPLLQEYPAGDVNLFLRIALKWIVKFDFDLLHELKPLSPEGVQALRCSRGLEGGMNFVQVMQSWVPSIF”, the “soluble on expression in E. coli” value is recorded as “not soluble”.

Consider “GPGSMPTAKVTEKEAACVTALKGEYPASKADPADAGFLSDSTYLRFARAHDGNVKKASELLGATLRWRKQTKPYAITMEEVQNAMKQTTMYCGGRCNIGCPVIAMVPGMQNDCTVEERTKQLVYIMEETHRKGYERITWIIDFGAMGSHRDERSKEARKETMKILQDYYPERMARILLYRTPWYIRMLLGAAKMFMDARTAAKVYNAGRTIEALEKFVDRDQVPPVCGGTMKGSALSHLEELPSLNSE”, for which the “soluble on expression in E. coli” value was “not soluble”. As to “GPGSMPTRSHGDEEYYRQSRYKPVSIEDTPMFWKERADKCYGTQQWKAAANAYSESIKRDGAFLTCVMNRSACYLQMADYKRAIEDCSLALTMLANTPASEVTQERYRGLMTKLHARRGAAYCWADDLKSGAADLRMAAAYRDPTSDDDVAADLAMIEAQMKERGITEVDACVDPLSTRMQEAAAQYYQGSYEAAEATYSAILKEQPFHMKAQGNLAATLLRAGKFTQALQVCDGIVQFCSEAAAALEQPGGLAGDQLDSDDEEDEDEPDWAASSTESAPEEVEGASNKDTLVRQRRAAAKTLGEQSGHVYMLLKAYVRSAAALCGMKEYHKAHGYLERAMRITPYDNDLREDCNRLAEKIRMDTLITASAGSARTQKAAV”, the “soluble on expression in E. coli” value is on record as “soluble”. With “GPGSMPVDYSKKLDALRELYERVQQKDTDIPEDVYAAAGVKNKARLKDIEKEISTTKKKVSQEVKKVTNEEIEKEYEALAKEHNMTVEEFKETVMGKGRQPALGSEFSERHAAQRKERAEQRDLKETRRQVERGDFDMTVDYV”, the “soluble on expression in E. coli” value is “soluble”.

“GPGSMQMEEKQAFFVESVDGRKFKMVIRGDLGKLSVAKIRRYLKSYGVPENQLLLAGNRVLEDAMLGEQFGLENEGVLHLREPTTVQHLAPAAVPSTAQSRTQLQQKPELSYEPQSAWRETRYEPAAHDARQMQREIERLQRQVEAAEARNADLEHQLEQVAESSAPYPPRGGAGGARRMSNSSDLDGLQVAKQSLKILAQKLGVSLQFDKNLTCVVGTDADFSILLTYDPATERLYIYSSLLTELPDHPPLRMKLYEVLLEGSLLGREVCGGGVGLSTQNNVVVLTTSLPVRHCSPEALCEVMPLFVETLVRWRSLIDELVR”: the “soluble on expression in E. coli” value is reported as “soluble”. Regarding “GPGSMRRTFKKLGLSALRACRGAGAAGTAASAHTSGFARVPSMSAPTALTVPRRSASDAALADATRRELEEEMGRSDKPEQPTPPAGWQVVRKPGTCTFDLTKSFEGEDLVVRYSTNQDSDKANSHNIFVYITQKNGQTMQADLSIEEGELVLNNIRFYDEAALAKDTGAEAEAKRNELYTGPLVHELDYDLLNCVMTYLEKRGVDEKLGEFVVLYSFWAEQQDYEAWLTTMNKFAS”, the “soluble on expression in E. coli” value is on record as “not soluble”.

“GPGSMRTSADIACLLAQYIKGQPEERLVTAAAYPDIFTPDVVEELNGAYALLLDAQRQAREACCAVDDVTREHGLPTALRITPKEQNELDVTEEMMIKRFAEEVAVYLSEGGAPNISSDAEPTSVLNSHCVDLRWHQHSTLVLHVLSYLPLEFTLSVAENVCKGWREWLFIPEFSGMFWHECTMREYPECVRMLLLSGGGDARQCDWRTFAMLCCSVDEEDISGEGTRSPDLVHS”: the “soluble on expression in E. coli” value is recorded as “not soluble”. With “GPGSMRWPAEPGCGSQGPATPERANKLRFLLVGKTDSGNHPSGWLVARTVRYSTADAEIGPCKGLISHDCKLLLLLCGYFERNPGPLRFVQQNVNGVSAVKLSSLLALDADVYLLPEVKKLREASRICKVPPYTVYCSPPNARGGRVAILVHQRSSIQTRSVTWKALPNDTGIKAVTVKL”, the “soluble on expression in E. coli” value is listed as “not soluble”. As for “GPGSMSAPTPRTGIIAGFNKGHVTTRRPRQPSPNDRFAVPHKHLRAVKAIIADLVGLSPLEKRVQEFLRVGKEKRALKYCKKRLGDFTAAKKKRSKMEEALRHATKKHH”, the “soluble on expression in E. coli” value is reported as “soluble”. “GPGSMSATEAVVEPKAPDVCTEANERPPTESGVAAPVKRLFDLLQEDSKERVVRLLTAFRELTLLEQESLAQEMGVTLPKEEKWRAPCPLIARQPSGPSLEVRRRDPSYVALCPSVSSALRELGSKEAARRLPDADLRKLVEGALGEDGVYLTVPESDGEGCAAASERVGVVDDGKPPLLVRSRCYQALRLARDEEIETDAQYTRPRVLNVTGIPLEESDVWEWFNLLDVARNGTVGVDAFLTSVRELDRGFGTSSKVQEAFEDESRSLSVDGQLSFDKFAYLVTRFSRY”: the “soluble on expression in E. coli” value is reported as “soluble”. For “GPGSMSDSTTEKIFLLYATFSEIHRELLMEHHKTHPEHKTYMDILNYLREEEGVKQSLLKKNSNWEILQQKKLTAIENVAISVKREIPGGFSNSAIVRNALPHAVVLSGFSTSSQTNENWVRLHMQLLDEQTKLVREYNDKRFLNASVKRMIVLCHEHGCDGVAGRLKREFGVSDKMHCWSMLDAYTTMSQWGLIDQLGDVKNKNKPVIGASAFINTLLACGRQEQAKQYIHKIPQIEQRMEYYLLCSDWEGAGADCRRHGEPDLLTQLKDRVKGDASAVQLIDKGWNSVQESGAVKLAKLFA”, the “soluble on expression in E. coli” value was “not soluble”.
